Test results reported in patent US20230183713A1, “SITE-SPECIFIC RECOMBINASES FOR EFFICIENT AND SPECIFIC GENOME EDITING” (TECHNISCHE UNIVERSITÄt DRESDEN, published 2023).
Positions count from the first letter of the chain named. Numbers in names are those of the source.

Assays:
[1] = molecular target: T1, Cre recombinase monomer with Y324W mutation
T1 chain: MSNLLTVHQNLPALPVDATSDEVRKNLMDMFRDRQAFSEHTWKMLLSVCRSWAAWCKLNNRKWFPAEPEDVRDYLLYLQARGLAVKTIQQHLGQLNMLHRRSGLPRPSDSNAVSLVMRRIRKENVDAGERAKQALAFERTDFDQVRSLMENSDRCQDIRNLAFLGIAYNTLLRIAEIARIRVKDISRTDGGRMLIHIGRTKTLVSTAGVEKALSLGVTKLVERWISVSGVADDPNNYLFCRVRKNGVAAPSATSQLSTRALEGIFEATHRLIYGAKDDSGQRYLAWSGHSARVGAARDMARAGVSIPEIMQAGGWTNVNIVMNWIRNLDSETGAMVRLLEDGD

[2] = molecular target: T2, Cre recombinase monomer with W315C mutation
T2 chain: T1 chain with W315C, W324Y

[3] = molecular target: T3, Cre recombinase monomer with Y324T mutation
T3 chain: T1 chain with W324T

[4] = molecular target: T4, Cre recombinase monomer with W315L mutation
T4 chain: T1 chain with W315L, W324Y

[5] = molecular target: T5, Cre recombinase monomer with Y324K mutation
T5 chain: T1 chain with W324K

[6] = molecular target: T6, Cre recombinase monomer with Y324R mutation
T6 chain: T1 chain with W324R

[7] = molecular target: T7, Cre recombinase monomer with Y324S mutation
T7 chain: T1 chain with W324S

[8] = molecular target: T8, Cre recombinase monomer with Y324C mutation
T8 chain: T1 chain with W324C

B1: Cre recombinase monomer with Q311R mutation (protein)
chain: T1 chain with Q311R, W324Y
[1]
  Median dimer activity (recombination on loxP): 95%
[2]
  Median dimer activity (recombination on loxP): 84%
[3]
  Median dimer activity (recombination on loxP): 85%
[4]
  Median dimer activity (recombination on loxP): 68%
[5]
  Median dimer activity (recombination on loxP): 85%
[6]
  Median dimer activity (recombination on loxP): 61%
[7]
  Median dimer activity (recombination on loxP): 81%
[8]
  Median dimer activity (recombination on loxP): 93%
